Literature values, collected in publication PMC7114193.
pKd: −log10 of the molar value.

Biological target: ACE2 (Homo sapiens) (UniProt Q9BYF1)
Sequence (Q9BYF1 18-740): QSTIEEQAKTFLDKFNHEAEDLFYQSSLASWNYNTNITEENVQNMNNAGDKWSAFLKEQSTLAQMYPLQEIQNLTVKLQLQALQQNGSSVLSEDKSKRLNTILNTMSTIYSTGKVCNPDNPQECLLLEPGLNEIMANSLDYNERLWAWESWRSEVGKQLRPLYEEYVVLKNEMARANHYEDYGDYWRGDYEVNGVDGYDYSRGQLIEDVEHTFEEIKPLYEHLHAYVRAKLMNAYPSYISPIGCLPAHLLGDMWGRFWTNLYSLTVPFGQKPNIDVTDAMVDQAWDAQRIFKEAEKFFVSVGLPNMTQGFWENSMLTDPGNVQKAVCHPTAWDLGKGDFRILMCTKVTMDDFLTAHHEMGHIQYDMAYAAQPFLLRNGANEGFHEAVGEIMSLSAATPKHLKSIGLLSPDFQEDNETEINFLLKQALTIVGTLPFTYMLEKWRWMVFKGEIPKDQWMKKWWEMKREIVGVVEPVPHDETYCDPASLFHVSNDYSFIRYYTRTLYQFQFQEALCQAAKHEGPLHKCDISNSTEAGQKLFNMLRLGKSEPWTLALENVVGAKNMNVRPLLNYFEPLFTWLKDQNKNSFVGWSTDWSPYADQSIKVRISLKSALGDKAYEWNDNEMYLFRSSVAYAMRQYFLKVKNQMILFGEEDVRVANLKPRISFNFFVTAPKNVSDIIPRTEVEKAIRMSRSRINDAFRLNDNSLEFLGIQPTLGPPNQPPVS

Substance: RBD-Fc 318-510 (from UniProt P59594)
- pKd: 8.00
